Measurements as given in PMC3404119.

Legend:
[1] = tested on: Her7 (coupled to chip, Fig 2D);Hes6-mCherry (zebrafish;zebrafish); assay: MITOMI; conditions: MITOMI in wheat germ TnT SP6 expression extract, 3 h at room temperature; PBS wash of immobilized protein; DNA spotted with 1% BSA; salt and pH not stated
Her1-GFP (zebrafish) = assay: MITOMI; conditions: PPARγ-mCherry present; MITOMI in wheat germ TnT SP6 expression extract, 3 h at room temperature; PBS wash of immobilized protein; DNA spotted with 1% BSA; salt and pH not stated
Her1 (zebrafish) = assay: MITOMI (mechanically induced trapping of molecular interactions); GFP-tagged Her protein from wheat germ extract immobilised on the microfluidic chip surface with anti-GFP antibody and washed with PBS; mCherry-tagged protein expressed on chip in wheat germ extract with 250 nM Cy5-labelled DNA oligomer; 3 h at room temperature; slope of free against bound mCherry signal as relative affinity

Substance	binding signal (relative to seq 2) [1]	binding signal (relative to seq 2) (Her1-GFP (zebrafish))	fold lower relative affinity than the Her1 homodimer (Her1-mCherry on Her1-GFP) (Her1 (zebrafish))
seq 46 (control)	0.0131	0.0105	
seq 47 (control)	0.0137	0.0105	
Her7 (natural protein)			3 fold
MyoD (myogenic differentiation 1) (from UniProt Q90477 1-275) (natural protein)			3 fold
